We go through one molecule from patent US20190023741A1.

The target in test [1] is Aβ1-20.
In test [2] the target is T1, Aβ11-29.
T1 sequence (peptide): EVHHQKLVFFAEDVGSNKG

Sequence of Aβ1-20 (peptide, as listed by the source): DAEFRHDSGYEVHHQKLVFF

As for SKGQA [ANA-SA5], the figures for the hydrolysis activity: remaining HPLC peak of the substrate in test [1] and in test [2] were 49.6% and 72%, respectively.
